US20240092930A1 (MABWELL SHANGHAI BIOSCIENCE, published 2024)
Blank lines part the entries; values can stand above or below the binder they belong to.

Target: T1, recombinant human Trop-2-his protein (ACCESSION NO.: NP_002344.2, AA 1-274) (human, UniProt P09758 27-274)
T1 construct: range 27-274; also called recombinant human Trop-2 protein; recombinant human Trop-2 extracellular domain; not shown: his tag
T1 sequence (looked up): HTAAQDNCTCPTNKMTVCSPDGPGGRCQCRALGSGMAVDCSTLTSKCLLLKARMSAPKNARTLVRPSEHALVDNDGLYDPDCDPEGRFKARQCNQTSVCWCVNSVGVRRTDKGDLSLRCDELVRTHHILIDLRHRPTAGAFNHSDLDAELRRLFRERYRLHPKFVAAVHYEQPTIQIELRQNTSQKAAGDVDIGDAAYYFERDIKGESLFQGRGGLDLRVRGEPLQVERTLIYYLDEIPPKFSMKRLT
Assay: BLI, antibody on AHC sensor, Trop-2-his 60 nM
Procedure: 5-6 days after cell transfection, culture supernatants were purified through ProA affinity chromatography column to obtain different humanized antibodies. Affinities of the obtained antibodies were determined by an assay including capturing Fc fragments of the antibodies with anti-human IgG Fc capture (AHC) biosensors using Octet QKe system instrument from Fortebio. For the assay, each of the humanized antibodies and control antibody Sacituzumab was diluted to 4 μg/ml in PBS, and was allowed to flow through the surface of an AHC biosensor (Cat.: 18-0015, PALL) for 120 s. Recombinant human Trop-2-his protein (ACCESSION NO.: NP_002344.2, AA 1-274) was used as a mobile phase, and its concentration was 60 nM. The binding time was 100 s and the dissociation time was 300 s. When the assay was finished, data from which the response values of blank control had been deducted were fitted to a 1:1 Langmuir binding model using software, and then kinetic constants for antigen-antibody binding were calculated.
Affinities of the antibodies obtained from the combinations of mutants of murine antibody 23-12, chimeric antibody ch23-12 and control antibody Sacituzumab to recombinant human Trop-2-his protein were determined by ForteBijo (Table 5).

B1: h23-12-1 (antibody, human IgG1, kappa, V domains shown)
VH: QVQLVQSGAEVKKPGASVKVSCKASGYTFTSYWMHWVRQAPGQGLEWMGEITPSDNYTSYNQKFKGRVTITRDTSTSTAYMELSSLRSEDTAVYYCARGHGNYVSFDYWGQGTLVTVSS
VL: DIQMTQSPSSLSASVGDRVTITCRASQDISNYLNWYQQKPGKAPKLLIYYTSRLHSGVPSRFSGSGSGTDFTLTISSLQPEDFATYFCQQGYTLPPYTFGQGTKLEIKR
notes: also called CDR grafted antibody 23-12
Kd: 0.272 nM

B2: h23-12-2 (antibody, human IgG1, kappa, V domains shown)
VH: QVQLVQSGAEVKKPGASVKVSCKASGYTFTSYWMHWVRQAPGQGLEWMGEITPGDNYTSYNQKFKGRVTITRDTSTSTAYMELSSLRSEDTAVYYCARGHGNYVSFDYWGQGTLVTVSS
VL: DIQMTQSPSSLSASVGDRVTITCRASQDISNYLNWYQQKPGKAPKLLIYYTSRLHSGVPSRFSGSGSGTDFTLTISSLQPEDFATYFCQQGYTLPPYTFGQGTKLEIKR
Kd: 0.893 nM

B3: h23-12-3 (antibody, human IgG1, kappa, V domains shown)
VH: QVQLVQSGAEVKKPGASVKVSCKASGYTFTSYWMHWVRQAPGQGLEWMGEITPSDGYTSYNQKFKGRVTITRDTSTSTAYMELSSLRSEDTAVYYCARGHGNYVSFDYWGQGTLVTVSS
VL: DIQMTQSPSSLSASVGDRVTITCRASQDISNYLNWYQQKPGKAPKLLIYYTSRLHSGVPSRFSGSGSGTDFTLTISSLQPEDFATYFCQQGYTLPPYTFGQGTKLEIKR
Kd: 15 nM

B4: h23-12-4 (antibody, human IgG1, kappa, V domains shown)
VH: QVQLVQSGAEVKKPGASVKVSCKASGYTFTSYWMHWVRQAPGQGLEWMGEITPSDNYGSYNQKFKGRVTITRDTSTSTAYMELSSLRSEDTAVYYCARGHGNYVSFDYWGQGTLVTVSS
VL: DIQMTQSPSSLSASVGDRVTITCRASQDISNYLNWYQQKPGKAPKLLIYYTSRLHSGVPSRFSGSGSGTDFTLTISSLQPEDFATYFCQQGYTLPPYTFGQGTKLEIKR
Kd: 0.827 nM

B5: h23-12-5 (antibody, human IgG1, kappa, V domains shown)
VH: QVQLVQSGAEVKKPGASVKVSCKASGYTFTSYWMHWVRQAPGQGLEWMGEITPSDNYTSYAQKFKGRVTITRDTSTSTAYMELSSLRSEDTAVYYCARGHGNYVSFDYWGQGTLVTVSS
VL: DIQMTQSPSSLSASVGDRVTITCRASQDISNYLNWYQQKPGKAPKLLIYYTSRLHSGVPSRFSGSGSGTDFTLTISSLQPEDFATYFCQQGYTLPPYTFGQGTKLEIKR
Kd: 3.2 nM

B6: h23-12-6 (antibody, human IgG1, kappa, V domains shown)
VH: QVQLVQSGAEVKKPGASVKVSCKASGYTFTSYWMHWVRQAPGQGLEWMGEITPSDNYTSYNQKFKGRVTITRDTSTSTAYMELSSLRSEDTAVYYCARGEGNYVSFDYWGQGTLVTVSS
VL: DIQMTQSPSSLSASVGDRVTITCRASQDISNYLNWYQQKPGKAPKLLIYYTSRLHSGVPSRFSGSGSGTDFTLTISSLQPEDFATYFCQQGYTLPPYTFGQGTKLEIKR
Kd: 0.298 nM

B7: h23-12-7 (antibody, human IgG1, kappa, V domains shown)
VH: QVQLVQSGAEVKKPGASVKVSCKASGYTFTSYWMHWVRQAPGQGLEWMGEITPSDNYTSYNQKFKGRVTITRDTSTSTAYMELSSLRSEDTAVYYCARGQGNYVSFDYWGQGTLVTVSS
VL: DIQMTQSPSSLSASVGDRVTITCRASQDISNYLNWYQQKPGKAPKLLIYYTSRLHSGVPSRFSGSGSGTDFTLTISSLQPEDFATYFCQQGYTLPPYTFGQGTKLEIKR
Kd: 6.8 nM

B8: h23-12-8 (antibody, human IgG1, kappa, V domains shown)
VH: QVQLVQSGAEVKKPGASVKVSCKASGYTFTSYWMHWVRQAPGQGLEWMGEITPSDNYTSYNQKFKGRVTITRDTSTSTAYMELSSLRSEDTAVYYCARGHGNYVSFDYWGQGTLVTVSS
VL: DIQMTQSPSSLSASVGDRVTITCRASQDISNYLNWYQQKPGKAPKLLIYYASRLHSGVPSRFSGSGSGTDFTLTISSLQPEDFATYFCQQGYTLPPYTFGQGTKLEIKR
Kd: 0.9 nM

B9: h23-12-9 (antibody, human IgG1, kappa, V domains shown)
VH: QVQLVQSGAEVKKPGASVKVSCKASGYTFTSYWMHWVRQAPGQGLEWMGEITPGDNYTSYNQKFKGRVTITRDTSTSTAYMELSSLRSEDTAVYYCARGHGNYVSFDYWGQGTLVTVSS
VL: DIQMTQSPSSLSASVGDRVTITCRASQDISNYLNWYQQKPGKAPKLLIYYASRLHSGVPSRFSGSGSGTDFTLTISSLQPEDFATYFCQQGYTLPPYTFGQGTKLEIKR
Kd: 1.1 nM

Now from value to binder:

Kd: 9.62 nM
B10: h23-12-10 (antibody, human IgG1, kappa, V domains shown)
VH: QVQLVQSGAEVKKPGASVKVSCKASGYTFTSYWMHWVRQAPGQGLEWMGEITPSDGYTSYNQKFKGRVTITRDTSTSTAYMELSSLRSEDTAVYYCARGHGNYVSFDYWGQGTLVTVSS
VL: DIQMTQSPSSLSASVGDRVTITCRASQDISNYLNWYQQKPGKAPKLLIYYASRLHSGVPSRFSGSGSGTDFTLTISSLQPEDFATYFCQQGYTLPPYTFGQGTKLEIKR

Kd: 0.881 nM
B11: h23-12-11 (antibody, human IgG1, kappa, V domains shown)
VH: QVQLVQSGAEVKKPGASVKVSCKASGYTFTSYWMHWVRQAPGQGLEWMGEITPSDNYGSYNQKFKGRVTITRDTSTSTAYMELSSLRSEDTAVYYCARGHGNYVSFDYWGQGTLVTVSS
VL: DIQMTQSPSSLSASVGDRVTITCRASQDISNYLNWYQQKPGKAPKLLIYYASRLHSGVPSRFSGSGSGTDFTLTISSLQPEDFATYFCQQGYTLPPYTFGQGTKLEIKR

Kd: 26.2 nM
B12: h23-12-12 (antibody, human IgG1, kappa, V domains shown)
VH: QVQLVQSGAEVKKPGASVKVSCKASGYTFTSYWMHWVRQAPGQGLEWMGEITPSDNYTSYAQKFKGRVTITRDTSTSTAYMELSSLRSEDTAVYYCARGHGNYVSFDYWGQGTLVTVSS
VL: DIQMTQSPSSLSASVGDRVTITCRASQDISNYLNWYQQKPGKAPKLLIYYASRLHSGVPSRFSGSGSGTDFTLTISSLQPEDFATYFCQQGYTLPPYTFGQGTKLEIKR

Kd: 0.916 nM
B13: h23-12-13 (antibody, human IgG1, kappa, V domains shown)
VH: QVQLVQSGAEVKKPGASVKVSCKASGYTFTSYWMHWVRQAPGQGLEWMGEITPSDNYTSYNQKFKGRVTITRDTSTSTAYMELSSLRSEDTAVYYCARGEGNYVSFDYWGQGTLVTVSS
VL: DIQMTQSPSSLSASVGDRVTITCRASQDISNYLNWYQQKPGKAPKLLIYYASRLHSGVPSRFSGSGSGTDFTLTISSLQPEDFATYFCQQGYTLPPYTFGQGTKLEIKR

Kd: 23.9 nM
B14: h23-12-14 (antibody, human IgG1, kappa, V domains shown)
VH: QVQLVQSGAEVKKPGASVKVSCKASGYTFTSYWMHWVRQAPGQGLEWMGEITPSDNYTSYNQKFKGRVTITRDTSTSTAYMELSSLRSEDTAVYYCARGQGNYVSFDYWGQGTLVTVSS
VL: DIQMTQSPSSLSASVGDRVTITCRASQDISNYLNWYQQKPGKAPKLLIYYASRLHSGVPSRFSGSGSGTDFTLTISSLQPEDFATYFCQQGYTLPPYTFGQGTKLEIKR

Kd: 1.43 nM
B15: h23-12-15 (antibody, human IgG1, kappa, V domains shown)
VH: QVQLVQSGAEVKKPGASVKVSCKASGYTFTSYWMHWVRQAPGQGLEWMGEITPSDNYTSYNQKFKGRVTITRDTSTSTAYMELSSLRSEDTAVYYCARGHGNYVSFDYWGQGTLVTVSS
VL: DIQMTQSPSSLSASVGDRVTITCRASQDISNYLNWYQQKPGKAPKLLIYYTSSLHSGVPSRFSGSGSGTDFTLTISSLQPEDFATYFCQQGYTLPPYTFGQGTKLEIKR

Kd: 2.87 nM
B16: h23-12-16 (antibody, human IgG1, kappa, V domains shown)
VH: QVQLVQSGAEVKKPGASVKVSCKASGYTFTSYWMHWVRQAPGQGLEWMGEITPGDNYTSYNQKFKGRVTITRDTSTSTAYMELSSLRSEDTAVYYCARGHGNYVSFDYWGQGTLVTVSS
VL: DIQMTQSPSSLSASVGDRVTITCRASQDISNYLNWYQQKPGKAPKLLIYYTSSLHSGVPSRFSGSGSGTDFTLTISSLQPEDFATYFCQQGYTLPPYTFGQGTKLEIKR

Kd: 28 nM
B17: h23-12-17 (antibody, human IgG1, kappa, V domains shown)
VH: QVQLVQSGAEVKKPGASVKVSCKASGYTFTSYWMHWVRQAPGQGLEWMGEITPSDGYTSYNQKFKGRVTITRDTSTSTAYMELSSLRSEDTAVYYCARGHGNYVSFDYWGQGTLVTVSS
VL: DIQMTQSPSSLSASVGDRVTITCRASQDISNYLNWYQQKPGKAPKLLIYYTSSLHSGVPSRFSGSGSGTDFTLTISSLQPEDFATYFCQQGYTLPPYTFGQGTKLEIKR

Kd: 0.991 nM
B18: h23-12-18 (antibody, human IgG1, kappa, V domains shown)
VH: QVQLVQSGAEVKKPGASVKVSCKASGYTFTSYWMHWVRQAPGQGLEWMGEITPSDNYGSYNQKFKGRVTITRDTSTSTAYMELSSLRSEDTAVYYCARGHGNYVSFDYWGQGTLVTVSS
VL: DIQMTQSPSSLSASVGDRVTITCRASQDISNYLNWYQQKPGKAPKLLIYYTSSLHSGVPSRFSGSGSGTDFTLTISSLQPEDFATYFCQQGYTLPPYTFGQGTKLEIKR

Kd: 10 nM
B19: h23-12-19 (antibody, human IgG1, kappa, V domains shown)
VH: QVQLVQSGAEVKKPGASVKVSCKASGYTFTSYWMHWVRQAPGQGLEWMGEITPSDNYTSYAQKFKGRVTITRDTSTSTAYMELSSLRSEDTAVYYCARGHGNYVSFDYWGQGTLVTVSS
VL: DIQMTQSPSSLSASVGDRVTITCRASQDISNYLNWYQQKPGKAPKLLIYYTSSLHSGVPSRFSGSGSGTDFTLTISSLQPEDFATYFCQQGYTLPPYTFGQGTKLEIKR
